The target in one test is T1, SND1 (16–339) R324A (human, UniProt Q7KZF4 16-339, R324A).
T1 sequence (looked up): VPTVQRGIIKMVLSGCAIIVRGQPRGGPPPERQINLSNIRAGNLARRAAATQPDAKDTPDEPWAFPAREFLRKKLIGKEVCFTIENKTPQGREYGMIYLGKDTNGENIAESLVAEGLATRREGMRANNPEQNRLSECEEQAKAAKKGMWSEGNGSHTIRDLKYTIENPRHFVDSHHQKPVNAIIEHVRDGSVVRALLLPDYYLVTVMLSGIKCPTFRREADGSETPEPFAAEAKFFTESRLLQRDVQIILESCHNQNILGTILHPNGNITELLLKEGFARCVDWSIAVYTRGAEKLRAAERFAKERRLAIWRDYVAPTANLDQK
Briefly: pull-down.

The next test has as its target T2, SND1 (16–339) R324E (human, UniProt Q7KZF4 16-339, R324E).
T2 sequence (looked up): T1 sequence (looked up) with A309E
Briefly: pull-down.

For a further test, the target named is T3, SND1 (16–339) R316E (human, UniProt Q7KZF4 16-339, R316E).
T3 sequence (looked up): T1 sequence (looked up) with R301E, A309R
In words: pull-down.

Test [1] concerns the target T4, SND1 SN1/2 domains (16–339) (human, UniProt Q7KZF4 16-339).
T4 sequence (looked up): T1 sequence (looked up) with A309R
In words: ITC. In general terms: In ITC the heat of successive injections is recorded.

The target in test [2] is T4, SND1 SN1/2 domains (16–339). In words: pull-down.
Test [3] shares this target. In words: crystal structure.

Residue numbers refer to the chain shown, from its start. Names and notes keep the numbering of the source.

B1: GST-tagged MTDH (364–582) (domain or fragment, human, UniProt Q86UE4 364-582, looked up)
chain: YQWDVSRNQPYIDDEWSGLNGLSSADPNSDWNAPAEEWGNWVDEERASLLKSQEPIPDDQKVSDDDKEKGEGALPTGKSKKKKKKKKKQGEDNSTAQDTEELEKEIREDLPVNTSKTRPKQEKAFSLKTISTSDPAEVLVKNSQPIKTLPPATSTEPSVILSKSDSDKSSSQVPPILQETDKSKSNTKQNSVPPSQTKSETSWESPKQIKKKKKARRET
In general, Kd refers to the equilibrium constant for the complex coming apart. Read a high Kd as a looser complex. On to B1, for which the binding result in the test with SND1 (16–339) R324A, with SND1 (16–339) R324E and with SND1 (16–339) R316E was “binds” throughout. For the same molecule, the Kd in test [1] was roughly 600 nM.

B2: GST-tagged MTDH (364–582) N395A (domain or fragment, human, UniProt Q86UE4 364-582, looked up)
chain: B1 chain with N32A
With B2, in test [2], the binding result is “binds”.

B3: GST-tagged MTDH (364–582) E400R (domain or fragment, human, UniProt Q86UE4 364-582, looked up)
chain: B1 chain with E37R
Take B3: the binding result in test [2] is reported as “binds”.

B4: GST-tagged MTDH (364–582) E400A (domain or fragment, human, UniProt Q86UE4 364-582, looked up)
chain: B1 chain with E37A
B4: the binding result in test [2] was “binds”.

B5: GST-tagged MTDH (364–582) N403A (domain or fragment, human, UniProt Q86UE4 364-582, looked up)
chain: B1 chain with N40A
Consider B5, for which the binding result in test [2] is on record as “binds”.

B6: GST-tagged MTDH (364–582) D389R (domain or fragment, human, UniProt Q86UE4 364-582, looked up)
chain: B1 chain with D26R
For B6, the binding result in test [2] is listed as “binds”.
As to SSADPNSDWNAPAEEWGNWVDE (peptide, UniProt Q86UE4 386-407, looked up) [MTDH (386–407)], the binding result in test [3] was “binds”.

The values are drawn from paper PMC4309369 (Cell reports, 2014).
